Measured values from the supplement of paper PMC10724198.
± gives the standard deviation of the averaged measurements.

System: Saccharomyces cerevisiae
Test: protein stability index of tFT-peptide fusion (C-terminal peptide) (PSI (0-1 scale)); higher = more stable (slower turnover)
Details: temperature: 30 C
Experimental: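 MPS profiling in S. cerevisiae of the yeast C-terminome library: the last 12 aa of each annotated ORF are fused to the C-terminus of a sfGFP-mCherry timer, after a GGGS linker. Cells are FACS-sorted into 8 mCherry/sfGFP bins and deep-sequenced. PSI runs from 0 (unstable) to 1 (stable); wild type and das1Δ backgrounds, two technical replicates each.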

[1] = genetic background: das1 deletion

Sequence	protein stability index [1]	protein stability index (genetic background: wild type)
SKKNVLYQKKNN [RTT107 C-terminal 12 aa]	0.69 ± 0.0099	0.286 ± 0.014
ENLRLKLKNFLR [MSH5 C-terminal 12 aa]	0.683 ± 0.0095	0.688 ± 0.022
KPDSTAVRNEDE [YNR065C C-terminal 12 aa]	0.7 ± 0.012	0.66 ± 0.072
ATGGKKTTFADE [RPA14 C-terminal 12 aa]	0.711 ± 0.054	0.667 ± 0.036
QVVDTIKDVHRC [YBR197C C-terminal 12 aa]	0.7 ± 0.027	0.706 ± 0.021
QEAGAFTFNEDF [RNR2 C-terminal 12 aa]	0.726 ± 0.018	0.711 ± 0.0081
VYGRNGNESHST [YGR050C C-terminal 12 aa]	0.701 ± 0.019	0.689 ± 0.017
IDIPVQVKNSFI [YNR068C C-terminal 12 aa]	0.711 ± 0.017	0.706 ± 0.051
NEDWPNESKPLV [GOR1 C-terminal 12 aa]	0.711 ± 0.0072	0.663 ± 0.011
SFNFDHFDHFDL [YIL054W C-terminal 12 aa]	0.733 ± 0.019	0.743 ± 0.014
KALIQRKGGKLE [RPL26A C-terminal 12 aa]	0.6757 ± 0.0023	0.688 ± 0.037
VKKNKPSIESKC [GSH1 C-terminal 12 aa]	0.688 ± 0.0086	0.762 ± 0.03
RRRLTYHRYHPK [YML009C-A C-terminal 12 aa]	0.731 ± 0.014	0.722 ± 0.012
TSPPEGMEPKHW [SGT1 C-terminal 12 aa]	0.696 ± 0.013	0.687 ± 0.0088
ADKELSFEINVK [BRR2 C-terminal 12 aa]	0.6946 ± 0.003	0.741 ± 0.066
YRDDPNQKNYKD [MSS4 C-terminal 12 aa]	0.6905 ± 0.0037	0.749 ± 0.081
FRGKLFLDSITD [MLC2 C-terminal 12 aa]	0.724 ± 0.0085	0.73 ± 0.034
PIIKEILQEYES [DNA2 C-terminal 12 aa]	0.6914 ± 0.0039	0.729 ± 0.013
VARRITDHTCLM [YLR364C-A C-terminal 12 aa]	0.677 ± 0.0084	0.696 ± 0.031
SFALVFKISAEV [YAR053W C-terminal 12 aa]	0.448 ± 0.046	0.489 ± 0.022
STERAKELLESN [MRF1 C-terminal 12 aa]	0.666 ± 0.026	0.69 ± 0.033

Sequence	protein stability index [1]	protein stability index (genetic background: wild type)
HLAQMKMEQLLK [APQ12 C-terminal 12 aa]	0.678 ± 0.015	0.67 ± 0.014
KNVTINTRETPL [DAL81 C-terminal 12 aa]	0.694 ± 0.018	0.6712 ± 0.0061
FASNKKVTASLR [AZR1 C-terminal 12 aa]	0.696 ± 0.013	0.6868 ± 0.00086
PQGAGRGRGMPM [CCT7 C-terminal 12 aa]	0.69 ± 0.0089	0.678 ± 0.034
GPTIPISATIRE [RCK2 C-terminal 12 aa]	0.65756 ± 0.00065	0.735 ± 0.021
AMLKPSSKEGSP [COQ10 C-terminal 12 aa]	0.6955 ± 0.0028	0.718 ± 0.0063
LCHYLTPYMIIY [YOL106W C-terminal 12 aa]	0.456 ± 0.016	0.45 ± 0.011
RKPPGFFDEGFM [FLC3 C-terminal 12 aa]	0.733 ± 0.061	0.6965 ± 0.0051
RRDVQSRSSMAC [HFL1 C-terminal 12 aa]	0.702 ± 0.02	0.652 ± 0.0097
KLEKLKAEKTRR [YDL085C-A C-terminal 12 aa]	0.669 ± 0.01	0.673 ± 0.031
MVTSIRSTPNYI [MED6 C-terminal 12 aa]	0.694 ± 0.021	0.722 ± 0.051
DLEEAANKAQPQ [YLR257W C-terminal 12 aa]	0.6993 ± 0.0011	0.7125 ± 0.0015
RFIRTANKKDYL [IMP4 C-terminal 12 aa]	0.671 ± 0.0071	0.7335 ± 0.0025
DIIKQGVNDIIV [ARD1 C-terminal 12 aa]	0.672 ± 0.015	0.717 ± 0.033
LMNAQSNETKLN [PTC6 C-terminal 12 aa]	0.7111 ± 0.0056	0.692 ± 0.033
KQAIYTRAAASE [RPS25B C-terminal 12 aa]	0.682 ± 0.054	0.69 ± 0.0061
NSFELNDFFITS [HAC1 C-terminal 12 aa]	0.7145 ± 0.0011	0.74 ± 0.031
EAQLSCSEESLA [COS1 C-terminal 12 aa]	0.69057 ± 5e-06	0.683 ± 0.024
NFVMTVFWKIPV [PER33 C-terminal 12 aa]	0.5008 ± 0.0016	0.558 ± 0.075
DYSRRVLRLMNE [WSC4 C-terminal 12 aa]	0.7058 ± 0.0028	0.5834 ± 0.0049
MDDEFVSGRFEI [SCH9 C-terminal 12 aa]	0.717 ± 0.025	0.7026 ± 0.0042

Sequence	protein stability index [1]	protein stability index (genetic background: wild type)
KSCGNNAGARIC [HO C-terminal 12 aa]	0.7093 ± 0.00098	0.452 ± 0.022
AGIHPDRAKLLK [NOP6 C-terminal 12 aa]	0.68 ± 0.013	0.6934 ± 0.0056
SPSPKPQHRRKR [ELO2 C-terminal 12 aa]	0.734 ± 0.025	0.704 ± 0.029
RHSCGRQMRVLA [AUA1 C-terminal 12 aa]	0.6614 ± 0.0011	0.248 ± 0.0083
LQVKAVRAKLDE [ALD4 C-terminal 12 aa]	0.699 ± 0.031	0.68 ± 0.037
YLIKNPGYPIVF [OST6 C-terminal 12 aa]	0.621 ± 0.0095	0.6361 ± 0.0047
KGTFLANLTDLI [SWF1 C-terminal 12 aa]	0.7347 ± 0.0012	0.665 ± 0.014
NNVPPIHPSLLH [NGR1 C-terminal 12 aa]	0.7115 ± 0.0066	0.695 ± 0.017
SFMSYSCDMPTP [YCL022C C-terminal 12 aa]	0.7225 ± 0.0042	0.727 ± 0.071
QEFVCFLFWPLT [YOR335W-A C-terminal 12 aa]	0.63 ± 0.0097	0.6034 ± 0.0059
GAAVAAGVAFLF [YDR524C-B C-terminal 12 aa]	0.717 ± 0.018	0.717 ± 0.044
TSLEKQINSIKK [NSP1 C-terminal 12 aa]	0.753 ± 0.036	0.70199 ± 0.0005
YPKFIKGHEEYF [BSC6 C-terminal 12 aa]	0.702 ± 0.035	0.715 ± 0.0089
LDAEYYIKFASK [ERD1 C-terminal 12 aa]	0.6942 ± 0.0061	0.69 ± 0.024
TLVGTPGYRITL [RCE1 C-terminal 12 aa]	0.7168 ± 0.0018	0.695 ± 0.02
PIAAIKEILDQV [DSF1 C-terminal 12 aa]	0.666 ± 0.0092	0.639 ± 0.03
FEFEFFESCYNA [PET18 C-terminal 12 aa]	0.744 ± 0.019	0.744 ± 0.038
RLANIQSFFQRQ [TVP23 C-terminal 12 aa]	0.7155 ± 0.0018	0.726 ± 0.064
QELCADSTIYHM [LIP1 C-terminal 12 aa]	0.687 ± 0.017	0.734 ± 0.065
SGWSNFEDFFSR [YKL222C C-terminal 12 aa]	0.744 ± 0.021	0.77 ± 0.019
ENRTMFLSKGKS [YPR172W C-terminal 12 aa]	0.701 ± 0.024	0.667 ± 0.016

Sequence	protein stability index [1]	protein stability index (genetic background: wild type)
ANKNDAISKKVE [ATG23 C-terminal 12 aa]	0.69 ± 0.017	0.763 ± 0.077
DAFTDPRQYHLT [BUD19 C-terminal 12 aa]	0.717 ± 0.0052	0.69 ± 0.0082
KAAINQQSTPLN [RPH1 C-terminal 12 aa]	0.676 ± 0.016	0.728 ± 0.053
EPKYVDEDDWSD [CEG1 C-terminal 12 aa]	0.69393 ± 0.00048	0.68 ± 0.02
IIAIVFKILSPN [FAR10 C-terminal 12 aa]	0.32 ± 0.023	0.347 ± 0.031
ASPTCTPQNPCV [CAB4 C-terminal 12 aa]	0.706 ± 0.021	0.735 ± 0.062
MITCLTAALKLN [AVT6 C-terminal 12 aa]	0.6868 ± 0.0041	0.174 ± 0.0018
IPELHNLKPTCV [YBR238C C-terminal 12 aa]	0.67 ± 0.012	0.687 ± 0.016
TDVKKFIHELCE [TRP3 C-terminal 12 aa]	0.69 ± 0.014	0.679 ± 0.034
FGKYLPLNYPSE [ASG1 C-terminal 12 aa]	0.7167 ± 0.0015	0.671 ± 0.015
VGENNYYAESII [COS111 C-terminal 12 aa]	0.714 ± 0.024	0.7022 ± 0.005
KEASRRFDAGKI [SOD2 C-terminal 12 aa]	0.6778 ± 0.0059	0.6795 ± 0.0053
RKVPYKIIPYVY [ERG24 C-terminal 12 aa]	0.514 ± 0.019	0.5005 ± 0.0021
AKRDILPSPVSV [LPP1 C-terminal 12 aa]	0.6165 ± 0.005	0.646 ± 0.04
NKRDKRPANFTR [TSC11 C-terminal 12 aa]	0.7063 ± 0.0042	0.692 ± 0.018
SLRSFFVKQKVL [ERP6 C-terminal 12 aa]	0.641 ± 0.0083	0.185 ± 0.025
CHLLFGTHKKTL [YBL071C-B C-terminal 12 aa]	0.7233 ± 0.002	0.6921 ± 0.003
KTDKVLYKRNGY [HPA3 C-terminal 12 aa]	0.687 ± 0.02	0.675 ± 0.065
TGTSNSVLVIIT [YPL136W C-terminal 12 aa]	0.677 ± 0.013	0.684 ± 0.033
